# According to PMC12412668:
# Key:
# [1] = biological target: T1, CD96 on primary human CD4^+ T cells and PBMCs (human (endogenous in primary CD4^+ T cells and PBMCs)) (UniProt P40200)
# T1 sequence: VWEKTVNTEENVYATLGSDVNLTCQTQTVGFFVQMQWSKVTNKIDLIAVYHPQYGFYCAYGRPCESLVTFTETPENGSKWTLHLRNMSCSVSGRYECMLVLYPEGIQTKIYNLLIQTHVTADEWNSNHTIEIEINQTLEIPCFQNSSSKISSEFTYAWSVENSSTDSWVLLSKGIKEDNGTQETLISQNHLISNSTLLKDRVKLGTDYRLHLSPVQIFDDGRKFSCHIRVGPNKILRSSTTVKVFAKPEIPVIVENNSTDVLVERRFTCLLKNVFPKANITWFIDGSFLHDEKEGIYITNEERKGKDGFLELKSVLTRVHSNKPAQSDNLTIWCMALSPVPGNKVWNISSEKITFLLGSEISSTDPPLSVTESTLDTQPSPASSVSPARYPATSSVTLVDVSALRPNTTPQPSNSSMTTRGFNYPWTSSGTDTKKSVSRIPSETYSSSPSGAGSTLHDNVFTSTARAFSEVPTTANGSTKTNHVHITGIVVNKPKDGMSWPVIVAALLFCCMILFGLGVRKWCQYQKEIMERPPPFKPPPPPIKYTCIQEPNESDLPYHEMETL
# [2] = biological target: T1, CD96 on primary human CD4^+ T cells and PBMCs (human (endogenous in primary CD4^+ T cells and PBMCs)); remark: listed apart in the source
Binder,"adherence of primary CD4^+ T cells (mock-infected or infected with WT HIV-1) to wells coated with CD155-Fc, percent adherent cells by flow cytometry [1] [%]","IFN-γ release (ELISpot) of PBMCs stimulated with HCMV pp65 peptide and costimulated with soluble CD155 (5 μg/ml), fold change relative to pp65 alone [2] [fold]"
Recombinant human CD155-Fc chimera (carrier-free) (Fc fusion) WPPPGTGDVVVQAPTQVPGFLGDSVTLPCYLQVPNMEVTHVSQLTWARHGESGSMAVFHQTQGPSYSESKRLEFVAARLGAELRNASLRMFGLRVEDEGNYTCLFVTFPQGSRSVDIWLRVLAKPQNTAEVQKVQLTGEPVPMARCVSTGGRPPAQITWHSDLGGMPNTSQVPGFLSGTVTVTSLWILVPSSQVDGKNVTCKVEHESFEKPQLLTVNLTVYYPPEVSISGYDNNWYLGQNEATLTCDARSNPEPTGYNWSTTMGPLPPFAVAQGAQLLIRPVDKPINTTLICNVTNALGARQAELTVQVKEGPPSEHSGISRN,20,
Human CD155 (PVR) Fc chimera recombinant protein (Fc fusion) WPPPGTGDVVVQAPTQVPGFLGDSVTLPCYLQVPNMEVTHVSQLTWARHGESGSMAVFHQTQGPSYSESKRLEFVAARLGAELRNASLRMFGLRVEDEGNYTCLFVTFPQGSRSVDIWLRVLAKPQNTAEVQKVQLTGEPVPMARCVSTGGRPPAQITWHSDLGGMPNTSQVPGFLSGTVTVTSLWILVPSSQVDGKNVTCKVEHESFEKPQLLTVNLTVYYPPEVSISGYDNNWYLGQNEATLTCDARSNPEPTGYNWSTTMGPLPPFAVAQGAQLLIRPVDKPINTTLICNVTNALGARQAELTVQVKEGPPSEHSGISRN,,< 8
